The record followed here is patent US20070054846A1, “Bcl-w structure and uses therefor” (priority 2002, published 2007).

What all share (type): binding
In assay [1] the target is T1, full-length Bcl-xL (Homo sapiens, UniProt Q07817).
T1 construct: FLAG-tagged full-length Bcl-xL or a C-terminally truncated mutant (ΔC24); expressed in transfected cells
The assay is described as follows: GST pull-down. An excerpt: (§1) Bcl-xL and Bcl-2 also contain hydrophobic residues at their C-termini, similar to those found in Bcl-w (FIG. 1C), yet the low level of sequence identity following α8 and the absence of 3D-structural information, makes prediction of their conformation difficult. Since BCl-xL, like Bcl-w, is only partially membrane-bound in healthy cells (Hsu et al., 1997), we compared the ability of FLAG-tagged full-length Bcl-xL or a C-terminally truncated mutant (ΔC24) to bind to BimL or the […]L94A B3 mutant.
Direct interactions between Bcl-w and BimL were monitored using GST pull-down experiments. These were performed in 100 μl of PBS (phosphate buffered saline pH 7.3) containing 2 mM DTT. Typically excess soluble proteins were added to equivalent amounts of resin bound proteins. After incubation at room temperature for 30 minutes the resin was pelleted and then washed twice with 200 μl of PBS containing 0.2% Tween 20. After removal of the second wash 10 μl of SDS-PAGE sample buffer was added to each sample and the samples were boiled then loaded onto 16% polyacrylamide gels that were electrophoresed and stained with Coomassie Blue R250. The staining intensity of the bound soluble protein indicated the strength of the interaction between the two proteins.

A further assay concerns the target T2, Bcl-xLΔC24 (Homo sapiens, UniProt Q07817).
T2 construct: expressed in transfected cells
The assay is described as follows: Co-immunoprecipitation / GST pull-down. The conditions noted are these: C-terminally truncated Bcl-xL (ΔC24).
Source text: as §1
Direct interactions between Bcl-w and BimL were monitored using GST pull-down experiments. These were performed in 100 μl of PBS (phosphate buffered saline pH 7.3) containing 2 mM DTT. Typically excess soluble proteins were added to equivalent amounts of resin bound proteins. After incubation at room temperature for 30 minutes the resin was pelleted and then washed twice with 200 μl of PBS containing 0.2% Tween 20. […]
(§2) Cell culture, stable transfections into FDC-P1, transient transfections into 293T human embryonic kidney cells, metabolic labelling with ^35S-methionine/cysteine (NEN) and co-immunoprecipitation have been previously described (O'Connor et al., 1998, Moriishi et al., 1999; Huang et al., 1998; Wilson-Annan et al., 2003). […] The immunoprecipitates were resolved by SDS-PAGE (Novex), transferred onto nitrocellulose membranes (APB) and the proteins detected by fluorography (Amplify; APB).

Assay [2] deals with T1, full-length Bcl-xL. Nature of the assay: Co-immunoprecipitation from cell extracts. The conditions noted are these: FLAG-tagged full-length Bcl-xL.
Source text: as §1
as §2, with “2003). Briefly, mammalian pEF-based expression vectors for Bcl-w, BCl-xL, Bim, Bmf, Bad and Bik (O'Connor et al., 1998, Huang et al., 1998; Moriishi et al., 1999; Wilson-Annan et al., 2003) were transiently transfected using liposome mediated transfection (Lipofectamine™; Invitrogen).” for “2003).”

T1 sequence (Q07817 whole entry, species assumed, the tested form may be a part): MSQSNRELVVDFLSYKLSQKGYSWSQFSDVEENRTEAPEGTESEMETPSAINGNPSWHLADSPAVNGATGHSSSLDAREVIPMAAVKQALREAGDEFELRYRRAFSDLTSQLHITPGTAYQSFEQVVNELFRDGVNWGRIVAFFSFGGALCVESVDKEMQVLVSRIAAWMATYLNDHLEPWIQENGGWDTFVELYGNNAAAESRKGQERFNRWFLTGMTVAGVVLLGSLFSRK
T2 sequence (Q07817 1-209 limits assumed, stated change not applied): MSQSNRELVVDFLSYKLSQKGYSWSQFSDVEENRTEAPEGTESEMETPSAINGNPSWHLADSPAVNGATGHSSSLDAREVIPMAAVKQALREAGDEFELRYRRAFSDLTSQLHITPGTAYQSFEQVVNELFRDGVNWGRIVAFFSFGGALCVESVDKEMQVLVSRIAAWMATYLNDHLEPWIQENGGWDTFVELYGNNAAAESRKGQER

B1: BimL: Bim isoform BimL, BH3-only protein (protein)
chain: MAKQPSDVSSECDREGGQLQPAERPPQLRPGAPTSLQTEPQDRSPAPMSCDKSTQTPSPPCQAFNHYLSAMASIRQSQEEPEDLRPEIRIAQELRRIGDEFNETYTRRVFANDYREAEDHPQMVILQLLRFIFRLVWRRH
modifications: left off: small tags and cut ends
notes: Bim isoform BimL, BH3-only protein
Regarding B1, the “association in GST pull-down” value with full-length Bcl-xL [1] is given as “more tightly with wild-type BimL”. In addition, the binding entry with Bcl-xLΔC24 is “bound wild-type BimL and the L94A mutant equally”. The “association in cell extracts” value with full-length Bcl-xL [2] is listed as “associates only with wild-type BimL”.
